Common to all, as to test: SEC
For test [1], the target named is DEBS3M5 KS0-AT A539D (Saccharopolyspora erythraea).
Test [2] addresses DEBS3M5 KS0-AT A539E (Saccharopolyspora erythraea).
Test [3] concerns the target DEBS3M5 KS0-AT A539F (Saccharopolyspora erythraea).
The target in test [4] is DEBS3M5 KS0-AT A539S (Saccharopolyspora erythraea).
Test [5] concerns the target DEBS3M5 KS0-AT R850A (Saccharopolyspora erythraea).
For test [6], the target named is DEBS3M5 KS0-AT R850E (Saccharopolyspora erythraea).
Test [7] deals with DEBS3M5 KS0-AT R850F (Saccharopolyspora erythraea).
Test [8] addresses DEBS3M5 KS0-AT R850K (Saccharopolyspora erythraea).
Test [9] has as its target DEBS3M5 KS0-AT R850S (Saccharopolyspora erythraea).
Test [10] addresses DEBS3M5 KS0-AT didomain, wild type (6-deoxyerythronolide B synthase module 5, KS knockout) (Saccharopolyspora erythraea).
Test [11] has as its target PikAIIIM5 KS0-AT didomain (pikromycin synthase module 5) (Streptomyces venezuelae).
The target of test [12] is Pks7 KS0-AT didomain (Saccharopolyspora erythraea).
Test [13] deals with RAPS3M14 KS0-AT didomain (rapamycin synthase module 14) (Streptomyces hygroscopicus).

Values joined by “and” are separate entries in the source; they are usually repeats but may differ in a detail not shown here. Equal values may be shown once.

Regarding “DEBS3M5 KS0-AT A539D (domain or fragment)”, the stoichiometry N in [1] is 4 and 2.

Regarding “DEBS3M5 KS0-AT A539E (domain or fragment)”, the stoichiometry N in test [2] was 4 and 2.

Consider “DEBS3M5 KS0-AT A539F (domain or fragment)”, for which the stoichiometry N in test [3] was 4 and 2.

In the case of “DEBS3M5 KS0-AT A539S (domain or fragment)”, the stoichiometry N in [4] is 4 and 2.

As for “DEBS3M5 KS0-AT R850A (domain or fragment)”, the stoichiometry N in [5] is 4 and 2.

For “DEBS3M5 KS0-AT R850E (domain or fragment)”, the stoichiometry N in test [6] is 4 and 2.

As to “DEBS3M5 KS0-AT R850F (domain or fragment)”, in test [7], the stoichiometry N is 4 and 2.

Consider “DEBS3M5 KS0-AT R850K (domain or fragment)”, for which, in [8], the stoichiometry N is 4 and 2.

“DEBS3M5 KS0-AT R850S (domain or fragment)”: in test [9], the stoichiometry N is 4 and 2.

“DEBS3M5 KS0-AT didomain, wild type (6-deoxyerythronolide B synthase module 5, KS knockout) (domain or fragment)”: the stoichiometry N in test [10] was 4 and 2.

As for “PikAIIIM5 KS0-AT didomain (pikromycin synthase module 5) (domain or fragment)”, in [11], the stoichiometry N was determined as 2.

On to “Pks7 KS0-AT didomain (domain or fragment)”, for which, in test [12], the stoichiometry N stood at 2.

Take “RAPS3M14 KS0-AT didomain (rapamycin synthase module 14) (domain or fragment)”: the stoichiometry N in [13] is 4.
